Test results taken from the supplement of paper PMC12042874.
± gives the uncertainty stated by the source.

Experiment: amyloid nucleation score (Sup35N fusion, yeast selection) (log enrichment); library NNK3; higher = more nucleation; inactive = no reads after selection
Outline: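 After 24 hours of induction with 100 μM copper sulfate, psi-negative yeast expressing peptides of 20 random codons fused to Sup35N were grown for 7 days at 30°C on medium lacking adenine and uracil. Input and output plasmid inserts were sequenced with Illumina, and sequences with under 100 input reads were discarded. Scores for nucleation are the DiMSum log enrichment of output over input reads, centred on the mode score of non-aggregating sequences.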
Work on GLAASSTNAFTRHVLNRV yielded an amyloid nucleation score of 1.51 ± 0.13. For GLANNYGQYRITSRAKLPRQ, the amyloid nucleation score was “inactive”. With GLAVNNRPDCEVSSLNRLLM the amyloid nucleation score was “inactive”. For GLCRLIDLKM, the amyloid nucleation score was “inactive”. In the case of GLDYLLHAIYFECRQSGGSR, the amyloid nucleation score is reported as 0.983 ± 0.17. GLIDLRVCEGRQFARTGSEM gave an amyloid nucleation score of 0.132 ± 0.36. For GLITWT, the amyloid nucleation score was “inactive”. In the case of GLLRTLSQDMTCGRDAGQGN, the amyloid nucleation score is reported as “inactive”. With GLNMVWFVHLSVNV the amyloid nucleation score was “inactive”. With GLNYS the amyloid nucleation score was “inactive”. Substance GLPNGGDPCLREVGSHLVTH has an amyloid nucleation score of -0.347 ± 1.4. In the case of GLPNLASYSPPPINAKYIGD, the amyloid nucleation score is reported as “inactive”. In the case of GLSCDYCTNLVMCCDPQL, the amyloid nucleation score is reported as 0.06 ± 0.25. With GLSDGWVGHRSYGSENVLLK the amyloid nucleation score was “inactive”. In the case of GLTVVSE, the amyloid nucleation score is reported as “inactive”. With GLVWCFCLCSITSYIMVILF the amyloid nucleation score was “inactive”. With GLYKNK the amyloid nucleation score was “inactive”. GMLPTGRYDRAYSFWGNWRR showed an amyloid nucleation score of 1.08 ± 0.18. GMSCWGSMQWNVL gave an amyloid nucleation score of 0.766 ± 0.17. For GMVNVARRKMSGLR, the amyloid nucleation score was 1.09 ± 0.16. For GNCSWRVYGISSGFLRHGAV, the amyloid nucleation score was “inactive”. With GNFRSELITMVSCTMECRFL the amyloid nucleation score was “inactive”. For GNGNFIRY, the amyloid nucleation score was “inactive”. For GNIDCSTVFVSRNNCD, the amyloid nucleation score was “inactive”. With GNIFRRYTVPSDANTKTWIY the amyloid nucleation score was “inactive”. For GNPRNMTVDDSDGKSFYFFY, the amyloid nucleation score was “inactive”. With GNVIMLLVTLASGCIPLSSE the amyloid nucleation score was “inactive”. With GPAVWPKWVSLAKWYPSEI the amyloid nucleation score was “inactive”. Substance GPDYHKHYRTYLPRTAFVGF has an amyloid nucleation score of 1.27 ± 0.17. In the case of GPMNLMRSVRYALSRSYLLL, the amyloid nucleation score is reported as “inactive”. In the case of GPPCDFCIRVSVCYTGSVNW, the amyloid nucleation score is reported as 0.466 ± 0.39. For GPWLLRASNAHTWTRYGLVK, the amyloid nucleation score was “inactive”. For GPYNCFVH, the amyloid nucleation score was “inactive”. For GQLYVMSRSDQARDSFELDA, the amyloid nucleation score was “inactive”. In the case of GQPGQ, the amyloid nucleation score is reported as “inactive”. With GQRNVVSYTSNMNVPLFSFG the amyloid nucleation score was “inactive”. For GRAHQFLISSFLSPGGPLMR, the amyloid nucleation score was “inactive”. In the case of GRIEKVVRNA, the amyloid nucleation score is reported as “inactive”. For GRIFRLPCYVRLVLVNCRYG, the amyloid nucleation score was “inactive”. For GRNCFGGARTAVGIRNTSPL, the amyloid nucleation score was “inactive”. In the case of GRNYFENVWIHRLYSSCLVM, the amyloid nucleation score is reported as 1.94 ± 0.068. Substance GRSMLMLRTYNM has an amyloid nucleation score of -0.056 ± 0.78. In the case of GRVMVWIFIFMMGGMQANLS, the amyloid nucleation score is reported as “inactive”. In the case of GRWFVCVQSAWCDCGGDVCV, the amyloid nucleation score is reported as “inactive”. In the case of GRYAEETRYRVFLLIVMTRR, the amyloid nucleation score is reported as “inactive”. For GSAVVAAECIGKRC, the amyloid nucleation score was “inactive”. With GSCRGVRWASRE the amyloid nucleation score was “inactive”. In the case of GSDLSWGRYKNSRFSSSMSA, the amyloid nucleation score is reported as “inactive”. In the case of GSFITSNA, the amyloid nucleation score is reported as “inactive”. For GSGEVWWVGCRTFFKTG, the amyloid nucleation score was “inactive”. With GSGVNWFNIVVVS the amyloid nucleation score was “inactive”. For GSHVTKVLTFYSNVWVHFTG, the amyloid nucleation score was “inactive”. For GSISMFNKG, the amyloid nucleation score was “inactive”. With GSLGAMKNQTTASQGAEGAL the amyloid nucleation score was “inactive”. GSLMTRRDLRKSPILIYRDG gave an amyloid nucleation score of -0.819 ± 0.75. For GSRCSASPKNSESGRGKYFG, the amyloid nucleation score was “inactive”. In the case of GSRGYGWFMKTFAYPRNCKN, the amyloid nucleation score is reported as “inactive”. For GSSRPVVSLTSDLRRCVGKD, the amyloid nucleation score was “inactive”. With GSSVCAR the amyloid nucleation score was “inactive”. In the case of GSTTCLYTSIPCCAGVLS, the amyloid nucleation score is reported as 0.449 ± 0.21. With GSVNLSVKSW the amyloid nucleation score was “inactive”. For GSVSPGNSILICFWFFWLLW, the amyloid nucleation score was “inactive”. In the case of GSWDVKLSF, the amyloid nucleation score is reported as “inactive”. In the case of GSWSKNMILHTLDLDCVAIV, the amyloid nucleation score is reported as “inactive”. In the case of GTDWLDMVILGEPFYMYLST, the amyloid nucleation score is reported as “inactive”. For GTGGSVRPHCEFSLRSSYMV, the amyloid nucleation score was “inactive”. With GTGRSECNCMQGTHGLGICS the amyloid nucleation score was -0.184 ± 1.5. Work on GTIRVYIKTNDATVIGEHHA yielded an amyloid nucleation score of 1.21 ± 0.13. In the case of GTLCVGPLKASCETGKLKFF, the amyloid nucleation score is reported as “inactive”. For GTLTVYNRDFRDIGDFKIYA, the amyloid nucleation score was “inactive”. For GTMSNYPNGFSMSSSYFSTY, the amyloid nucleation score was “inactive”. For GTNDSDFESWNVFKCINCLA, the amyloid nucleation score was “inactive”. With GTQRVAIEDSGVIR the amyloid nucleation score was “inactive”. With GTSICDVKFAPLYSE the amyloid nucleation score was “inactive”. For GTTLHYLSRREYGFTGRILF, the amyloid nucleation score was “inactive”. For GTTYTAHYAWSTVGDIWSLH, the amyloid nucleation score was “inactive”. In the case of GTVGHYRLST, the amyloid nucleation score is reported as “inactive”. For GTYSTVKFCLCMWVILAPSS, the amyloid nucleation score was “inactive”. For GVCASNQLALKCTYVPMSVR, the amyloid nucleation score was “inactive”.
